T1: GPAA1, subunit of the human GPI transamidase (GPI-T) (human, UniProt O43292-1 2-621)
T1 construct: GPAA1, human, Genbank ID NP_003792.1; The 2×Flag tag follows the TGP tag; also called Gaa1p (yeast name); source: Expi293 cells co-transfected with five plasmids carrying all subunits; purified as the GPI-T complex (Strep-Tactin, Ni-NTA, gel filtration) in digitonin
T1 sequence: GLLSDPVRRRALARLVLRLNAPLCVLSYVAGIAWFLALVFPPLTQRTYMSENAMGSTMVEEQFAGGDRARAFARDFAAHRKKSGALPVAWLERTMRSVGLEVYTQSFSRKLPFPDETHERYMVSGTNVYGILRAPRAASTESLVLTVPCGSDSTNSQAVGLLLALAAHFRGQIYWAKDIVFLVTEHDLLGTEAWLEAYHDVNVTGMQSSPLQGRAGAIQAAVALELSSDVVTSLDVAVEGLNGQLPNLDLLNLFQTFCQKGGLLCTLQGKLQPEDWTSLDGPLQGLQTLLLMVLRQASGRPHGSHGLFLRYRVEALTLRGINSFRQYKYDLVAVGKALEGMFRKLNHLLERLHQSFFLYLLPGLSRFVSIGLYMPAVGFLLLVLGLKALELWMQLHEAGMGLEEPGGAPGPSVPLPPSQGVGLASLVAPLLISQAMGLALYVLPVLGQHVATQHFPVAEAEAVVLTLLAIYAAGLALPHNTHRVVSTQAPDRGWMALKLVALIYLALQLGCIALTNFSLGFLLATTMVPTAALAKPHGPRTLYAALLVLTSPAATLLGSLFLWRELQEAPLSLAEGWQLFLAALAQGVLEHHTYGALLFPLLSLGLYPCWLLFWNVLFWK

B1: PIGT, subunit of the human GPI transamidase (GPI-T) (natural protein)
chain: LAEPPRDSLREELVITPLPSGDVAATFQFRTRWDSELQREGVSHYRLFPKALGQLISKYSLRELHLSFTQGFWRTRYWGPPFLQAPSGAELWVWFQDTVTDVDKSWKELSNVLSGIFCASLNFIDSTNTVTPTASFKPLGLANDTDHYFLRYAVLPREVVCTENLTPWKKLLPCSSKAGLSVLLKADRLFHTSYHSQAVHIRPVCRNARCTSISWELRQTLSVVFDAFITGQGKKDWSLFRMFSRTLTEPCPLASESRVYVDITTYNQDNETLEVHPPPTTTYQDVILGTRKTYAIYDLLDTAMINNSRNLNIQLKWKRPPENEAPPVPFLHAQRYVSGYGLQKGELSTLLYNTHPYRAFPVLLLDTVPWYLRLYVHTLTITSKGKENKPSYIHYQPAQDRLQPHLLEMLIQLPANSVTKVSIQFERALLKWTEYTPDPNHGFYVSPSVLSALVPSMVAAKPVDWEESPLFNSLFPVSDGSNYFVRLYTEPLLVNLPTPDFSMPYNVICLTCTVVAVCYGSFYNLLTRTFHIEEPRTGGLAKRLANLIRRARGVPPL
modifications: disulfide bond from C182 to PIGK C92
notes: PIGT, human, Genbank ID NP_057021.2; also called Gpi16p (yeast name); source: Expi293 cells co-transfected with five plasmids carrying all subunits; purified as the GPI-T complex (Strep-Tactin, Ni-NTA, gel filtration) in digitonin; not shown: 9×His, C-terminal, kept
B2: PIGU, subunit of the human GPI transamidase (GPI-T) (natural protein)
chain: AAPLVLVLVVAVTVRAALFRSSLAEFISERVEVVSPLSSWKRVVEGLSLLDLGVSPYSGAVFHETPLIIYLFHFLIDYAELVFMITDALTAIALYFAIQDFNKVVFKKQKLLLELDQYAPDVAELIRTPMEMRYIPLKVALFYLLNPYTILSCVAKSTCAINNTLIAFFILTTIKGSAFLSAIFLALATYQSLYPLTLFVPGLLYLLQRQYIPVKMKSKAFWIFSWEYAMMYVGSLVVIICLSFFLLSSWDFIPAVYGFILSVPDLTPNIGLFWYFFAEMFEHFSLFFVCVFQINVFFYTIPLAIKLKEHPIFFMFIQIAVIAIFKSYPTVGDVALYMAFFPVWNHLYRFLRNIFVLTCIIIVCSLLFPVLWHLWIYAGSANSNFFYAITLTFNVGQILLISDYFYAFLRREYYLTHGLYLTAKDGTEAMLVLK
notes: PIGU, human, Genbank ID NP_536724.1; gene assembled from overlapping oligonucleotides; also called Gab1p (yeast name); source: Expi293 cells co-transfected with five plasmids carrying all subunits; purified as the GPI-T complex (Strep-Tactin, Ni-NTA, gel filtration) in digitonin; not shown: Strep, C-terminal, kept
B3: PIGS, subunit of the human GPI transamidase (GPI-T) (natural protein)
chain: AAAGAAATHLEVARGKRAALFFAAVAIVLGLPLWWKTTETYRASLPYSQISGLNALQLRLMVPVTVVFTRESVPLDDQEKLPFTVVHEREIPLKYKMKIKCRFQKAYRRALDHEEEALSSGSVQEAEAMLDEPQEQAEGSLTVYVISEHSSLLPQDMMSYIGPKRTAVVRGIMHREAFNIIGRRIVQVAQAMSLTEDVLAAALADHLPEDKWSAEKRRPLKSSLGYEITFSLLNPDPKSHDVYWDIEGAVRRYVQPFLNALGAAGNFSVDSQILYYAMLGVNPRFDSASSSYYLDMHSLPHVINPVESRLGSSAASLYPVLNFLLYVPELAHSPLYIQDKDGAPVATNAFHSPRWGGIMVYNVDSKTYNASVLPVRVEVDMVRVMEVFLAQLRLLFGIAQPQLPPKCLLSGPTSEGLMTWELDRLLWARSVENLATATTTLTSLAQLLGKISNIVIKDDVASEVYKAVAAVQKSAEELASGHLASAFVASQEAVTSSELAFFDPSLLHLLYFPDDQKFAIYIPLFLPMAVPILLSLVKIFLETRKSWRKPEKTD
notes: PIGS, human, Genbank ID NP_149975.1; The Myc tag follows the TGP tag; also called Gpi17p (yeast name); source: Expi293 cells co-transfected with five plasmids carrying all subunits; purified as the GPI-T complex (Strep-Tactin, Ni-NTA, gel filtration) in digitonin
B4: PIGK, subunit of the human GPI transamidase (GPI-T) (enzyme)
chain: SHIEDQAEQFFRSGHTNNWAVLVCTSRFWFNYRHVANTLSVYRSVKRLGIPDSHIVLMLADDMACNPRNPKPATVFSHKNMELNVYGDDVEVDYRSYEVTVENFLRVLTGRIPPSTPRSKRLLSDDRSNILIYMTGHGGNGFLKFQDSEEITNIELADAFEQMWQKRRYNELLFIIDTCQGASMYERFYSPNIMALASSQVGEDSLSHQPDPAIGVHLMDRYTFYVLEFLEEINPASQTNMNDLFQVCPKSLCVSTPGHRTDLFQRDPKNVLITDFFGSVRKVEITTETIKLQQDSEIMESSYKEDQMDEKLMEPLKYAEQLPVAQIIHQKPKLKDWHPPGGFILGLWALIIMVFFKTYGIKHMKFIF
modifications: disulfide bond from C92 to PIGT C182
notes: PIGK, human, Genbank ID NP_005473.1; The HA tag follows the TGP tag; also called Gpi8p (yeast name); source: Expi293 cells co-transfected with five plasmids carrying all subunits; purified as the GPI-T complex (Strep-Tactin, Ni-NTA, gel filtration) in digitonin

Tests used:
Assay in all cases: cryo-EM structure; single-particle cryo-EM of the purified GPI-T complex in 0.1% digitonin, 150 mM NaCl, 20 mM Tris HCl pH 8.0; 2.53 Å; five subunits with 1:1 stoichiometry
Conditions in all cases: both partners purified
[1] = target: T1, GPAA1, subunit of the human GPI …
[2] = target: B3
[3] = target: B1
[4] = target: B2

| binding result [1] | binding result [3] | Binder | binding result [2] | binding result [4] |
| --- | --- | --- | --- | --- |
| binds | – | B1 | – | – |
| binds | binds | B2 | binds | – |
| – | binds | B3 | – | – |

| Binder | binding result [1] | binding result [3] | binding result [2] | binding result [4] |
| --- | --- | --- | --- | --- |
| B4 | – | binds | binds | binds |

Source: paper PMC9098846, “Molecular insights into biogenesis of glycosylphosphatidylinositol anchor proteins” (Nature Communications, 2022)
